Laboratory results: article PMC9371972, “Cryo-EM structure of the human CST–Polα/primase complex in a recruitment state” (Nature Structural & Molecular Biology, 2022)

T1: POLA1^FL (subunit of PP^FL) (human, UniProt P09884 1-1462)
T1 construct: the POLA1 chain of m3; Always present with POLA2, PRIM1 and PRIM2; written alone for subunit-to-subunit cross-links; source: Tni insect cells (baculovirus), purified as part of PP^FL
T1 sequence (looked up): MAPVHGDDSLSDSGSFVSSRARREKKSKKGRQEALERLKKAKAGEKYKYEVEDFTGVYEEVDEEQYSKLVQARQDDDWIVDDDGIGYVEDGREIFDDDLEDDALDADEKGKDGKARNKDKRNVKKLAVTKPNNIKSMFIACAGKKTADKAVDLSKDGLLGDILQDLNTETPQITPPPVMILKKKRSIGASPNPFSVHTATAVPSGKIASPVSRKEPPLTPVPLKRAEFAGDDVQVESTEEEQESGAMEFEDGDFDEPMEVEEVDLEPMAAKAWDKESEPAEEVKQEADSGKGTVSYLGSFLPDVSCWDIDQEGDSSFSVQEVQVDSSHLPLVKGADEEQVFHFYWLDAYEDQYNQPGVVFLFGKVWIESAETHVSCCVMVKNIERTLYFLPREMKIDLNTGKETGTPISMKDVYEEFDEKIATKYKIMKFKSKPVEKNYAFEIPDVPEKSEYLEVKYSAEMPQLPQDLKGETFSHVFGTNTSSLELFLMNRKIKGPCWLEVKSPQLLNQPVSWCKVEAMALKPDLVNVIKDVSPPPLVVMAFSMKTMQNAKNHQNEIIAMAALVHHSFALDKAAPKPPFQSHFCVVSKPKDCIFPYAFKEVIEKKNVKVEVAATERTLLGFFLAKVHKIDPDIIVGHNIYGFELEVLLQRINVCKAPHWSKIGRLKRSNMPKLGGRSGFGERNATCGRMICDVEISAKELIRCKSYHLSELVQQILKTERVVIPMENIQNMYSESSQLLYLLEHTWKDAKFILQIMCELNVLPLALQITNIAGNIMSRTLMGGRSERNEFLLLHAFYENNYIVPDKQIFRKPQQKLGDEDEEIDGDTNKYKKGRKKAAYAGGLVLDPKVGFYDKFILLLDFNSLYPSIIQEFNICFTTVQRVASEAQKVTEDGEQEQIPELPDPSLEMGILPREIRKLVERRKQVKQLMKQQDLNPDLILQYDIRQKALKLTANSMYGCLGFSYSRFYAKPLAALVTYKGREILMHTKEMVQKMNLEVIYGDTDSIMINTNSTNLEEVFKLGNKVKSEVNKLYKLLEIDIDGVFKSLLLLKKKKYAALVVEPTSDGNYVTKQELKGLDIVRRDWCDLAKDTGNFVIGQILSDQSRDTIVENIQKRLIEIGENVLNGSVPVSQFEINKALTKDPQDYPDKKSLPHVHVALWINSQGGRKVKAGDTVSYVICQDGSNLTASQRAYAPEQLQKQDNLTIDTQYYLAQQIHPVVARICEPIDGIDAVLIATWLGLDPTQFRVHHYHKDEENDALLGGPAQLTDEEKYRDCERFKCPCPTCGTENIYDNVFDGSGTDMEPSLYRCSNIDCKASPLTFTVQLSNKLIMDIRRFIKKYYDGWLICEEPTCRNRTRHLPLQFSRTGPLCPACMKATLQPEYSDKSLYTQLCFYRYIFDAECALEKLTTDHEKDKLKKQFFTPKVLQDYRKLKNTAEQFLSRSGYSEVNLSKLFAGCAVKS

B1: CTC1 (subunit of the CST complex) (natural protein, human)
chain: MAAGRAQVPSSEQAWLEDAQVFIQKTLCPAVKEPNVQLTPLVIDCVKTVWLSQGRNQGSTLPLSYSFVSVQDLKTHQRLPCCSHLSWSSSAYQAWAQEAGPNGNPLPREQLLLLGTLTDLSADLEQECRNGSLYVRDNTGVLSCELIDLDLSWLGHLFLFPRWSYLPPARWNSSGEGHLELWDAPVPVFPLTISPGPVTPIPVLYPESASCLLRLRNKLRGVQRNLAGSLVRLSALVKSKQKAYFILSLGRSHPAVTHVSIIVQVPAQLVWHRALRPGTAYVLTELRVSKIRGQRQHVWMTSQSSRLLLLKPECVQELELELEGPLLEADPKPLPMPSNSEDKKDPESLVRYSRLLSYSGAVTGVLNEPAGLYELDGQLGLCLAYQQFRGLRRVMRPGVCLQLQDVHLLQSVGGGTRRPVLAPCLRGAVLLQSFSRQKPGAHSSRQAYGASLYEQLVWERQLGLPLYLWATKALEELACKLCPHVLRHHQFLQHSSPGSPSLGLQLLAPTLDLLAPPGSPVRNAHNEILEEPHHCPLQKYTRLQTPSSFPTLATLKEEGQRKAWASFDPKALLPLPEASYLPSCQLNRRLAWSWLCLLPSAFCPAQVLLGVLVASSHKGCLQLRDQSGSLPCLLLAKHSQPLSDPRLIGCLVRAERFQLIVERDVRSSFPSWKELSMPGFIQKQQARVYVQFFLADALILPVPRPCLHSATPSTPQTDPTGPEGPHLGQSRLFLLCHKEALMKRNFCVPPGASPEVPKPALSFYVLGSWLGGTQRKEGTGWGLPEPQGNDDNDQKVHLIFFGSSVRWFEFLHPGQVYRLIAPGPATPMLFEKDGSSCISRRPLELAGCASCLTVQDNWTLELESSQDIQDVLDANKSLPESSLTDLLSDNFTDSLVSFSAEILSRTLCEPLVASLWMKLGNTGAMRRCVKLTVALETAECEFPPHLDVYIEDPHLPPSLGLLPGARVHFSQLEKRVSRSHNVYCCFRSSTYVQVLSFPPETTISIPLPHIYLAELLQGGQSPFQATASCHIVSVFSLQLFWVCAYCTSICRQGKCTRLGSTCPTQTAISQAIIRLLVEDGTAEAVVTCRNHHVAAALGLCPREWASLLDFVQVPGRVVLQFAGPGAQLESSARVDEPMTMFLWTLCTSPSVLRPIVLSFELERKPSKIVPLEPPRLQRFQCGELPFLTHVNPRLRLSCLSIRESEYSSSLGILASSC
notes: human CTC1; the CTC1 chain of m1; Always present with STN1 and TEN1; written alone for subunit-to-subunit contacts; source: Tni insect cells (baculovirus), purified as part of CST; not shown: His6, N-terminal, cleaved; MBP, N-terminal, cleaved

Key:
Settings in all cases: both partners purified
[1] = target: T1, POLA1^FL (subunit of PP^FL); assay: cross-linking; CX-MS of the SEC-reconstituted CST–PP^FL complex with DSS (0.35–0.75 mM, 25 °C, 30 min), 1 mg/mL
[2] = target: B1; assay: cross-linking; CX-MS of the SEC-reconstituted CST–POLA1^N complex with BS3 (0.35–0.75 mM, 25 °C, 30 min), 1 mg/mL
[3] = target: T2, CTC1–STN1–TEN1 (CST) complex (human, UniProt Q2NKJ3 1-1217; Q9H668 1-368; Q86WV5 1-123); assay: SEC; purified proteins mixed (PP^FL and CST equimolar; CST with twofold molar excess of His6-MBP-POLA1^N), 1 h at 4 °C, HiLoad Superdex 200 16/600 PG, 20 mM HEPES pH 7.5, 150 mM NaCl, 0.5 mM TCEP, 5% glycerol
T2 construct: human CTC1; human STN1; human TEN1; Expressed from pBIG1a(His6-MBP-PreSc-CTC1/STN1/TEN1); tag removed with rhinovirus 3C protease; source: Tni insect cells (baculovirus), purified (Ni-NTA, 3C protease cleavage, heparin, SEC); not shown: His6, N-terminal, cleaved; MBP, N-terminal, cleaved; copies: + +
T2 sequence (Q9H668 whole entry, chain 2 of 2): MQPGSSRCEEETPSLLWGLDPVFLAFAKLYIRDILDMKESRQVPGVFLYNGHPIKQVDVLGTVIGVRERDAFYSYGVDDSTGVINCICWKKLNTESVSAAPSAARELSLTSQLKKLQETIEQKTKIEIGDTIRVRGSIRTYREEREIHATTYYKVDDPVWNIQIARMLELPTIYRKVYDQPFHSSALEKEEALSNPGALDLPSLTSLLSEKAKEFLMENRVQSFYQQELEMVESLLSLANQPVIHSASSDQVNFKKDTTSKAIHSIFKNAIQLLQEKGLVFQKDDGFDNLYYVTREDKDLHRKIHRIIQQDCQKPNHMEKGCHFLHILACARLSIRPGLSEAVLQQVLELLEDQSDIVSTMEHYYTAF
T2 sequence (Q86WV5 whole entry, chain 3 of 2): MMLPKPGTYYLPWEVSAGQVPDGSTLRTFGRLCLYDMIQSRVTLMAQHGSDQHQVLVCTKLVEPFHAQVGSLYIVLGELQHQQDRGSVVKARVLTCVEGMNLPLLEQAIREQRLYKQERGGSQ

Binder	binding result [1]	binding result [2]	binding result [3]
B1	binds	–	–
His6-MBP-PreSc-POLA1^N (domain or fragment, human, UniProt P09884 1-339, looked up, human POLA1 N-terminal region, POLA1^N, 1–339 aa in the methods (1–335 aa in the results); MBP served as a mass label in negative-stain EM; also called MBP-POLA1^N; MBP-tagged POLA1^N; source: Tni insect cells (baculovirus), purified (Ni-NTA, SEC); not shown: His6, N-terminal, kept; MBP, N-terminal, kept) MAPVHGDDSLSDSGSFVSSRARREKKSKKGRQEALERLKKAKAGEKYKYEVEDFTGVYEEVDEEQYSKLVQARQDDDWIVDDDGIGYVEDGREIFDDDLEDDALDADEKGKDGKARNKDKRNVKKLAVTKPNNIKSMFIACAGKKTADKAVDLSKDGLLGDILQDLNTETPQITPPPVMILKKKRSIGASPNPFSVHTATAVPSGKIASPVSRKEPPLTPVPLKRAEFAGDDVQVESTEEEQESGAMEFEDGDFDEPMEVEEVDLEPMAAKAWDKESEPAEEVKQEADSGKGTVSYLGSFLPDVSCWDIDQEGDSSFSVQEVQVDSSHLPLVKGADEEQ	–	binds	binds
